{"source": "the supplement of paper PMC10567573", "parents": {"B1": {"name": "MATN2 (parent)", "chain": "FIVDILQFLDIGPDVTRVGLLQYG"}}, "data": [{"variants_of": "B1", "assay": "protein stability index of a GFP-peptide fusion (GPS, HEK-293T) (PSI 1-6); higher = more stable", "details": "c terminus: a fixed tail appended", "values": [{"variant": "FIVDYLQFLDIGPDVTRVGLLQYG", "note": "[I5Y]", "protein stability index": 3.16}, {"variant": "FIVDLLQFLDIGPDVTRVGLLQYG", "note": "[I5L]", "protein stability index": 2.26}, {"variant": "FIVDALQFLDIGPDVTRVGLLQYG", "note": "[I5A]", "protein stability index": 1.44}, {"variant": "FIVDVLQFLDIGPDVTRVGLLQYG", "note": "[I5V]", "protein stability index": 3.23}, {"variant": "FIVDDLQFLDIGPDVTRVGLLQYG", "note": "[I5D]", "protein stability index": 3.18}, {"variant": "FIVDFLQFLDIGPDVTRVGLLQYG", "note": "[I5F]", "protein stability index": 3.88}, {"variant": "FIVDIWQFLDIGPDVTRVGLLQYG", "note": "[L6W]", "protein stability index": 3.3}, {"variant": "FIVDIAQFLDIGPDVTRVGLLQYG", "note": "[L6A]", "protein stability index": 3.92}, {"variant": "FIVDIRQFLDIGPDVTRVGLLQYG", "note": "[L6R]", "protein stability index": 3.41}, {"variant": "FIVDIFQFLDIGPDVTRVGLLQYG", "note": "[L6F]", "protein stability index": 2.17}, {"variant": "FIVDIYQFLDIGPDVTRVGLLQYG", "note": "[L6Y]", "protein stability index": 2.87}, {"variant": "FIVDIPQFLDIGPDVTRVGLLQYG", "note": "[L6P]", "protein stability index": 1.3}, {"variant": "FIVDIIQFLDIGPDVTRVGLLQYG", "note": "[L6I]", "protein stability index": 2.56}, {"variant": "FIVDIHQFLDIGPDVTRVGLLQYG", "note": "[L6H]", "protein stability index": 3.78}, {"variant": "FIVDILQILDIGPDVTRVGLLQYG", "note": "[F8I]", "protein stability index": 2.65}, {"variant": "FIVDILQSLDIGPDVTRVGLLQYG", "note": "[F8S]", "protein stability index": 2.12}, {"variant": "FIVDILQDLDIGPDVTRVGLLQYG", "note": "[F8D]", "protein stability index": 2}, {"variant": "FIVDILQNLDIGPDVTRVGLLQYG", "note": "[F8N]", "protein stability index": 1.68}, {"variant": "FIVDILQVLDIGPDVTRVGLLQYG", "note": "[F8V]", "protein stability index": 2.94}, {"variant": "FIVDILQKLDIGPDVTRVGLLQYG", "note": "[F8K]", "protein stability index": 1.06}, {"variant": "FIVDILQCLDIGPDVTRVGLLQYG", "note": "[F8C]", "protein stability index": 2.21}, {"variant": "FIVDILQQLDIGPDVTRVGLLQYG", "note": "[F8Q]", "protein stability index": 2.49}, {"variant": "FIVDILQLLDIGPDVTRVGLLQYG", "note": "[F8L]", "protein stability index": 2.43}, {"variant": "FIVDILQGLDIGPDVTRVGLLQYG", "note": "[F8G]", "protein stability index": 4.33}, {"variant": "FIVDILQPLDIGPDVTRVGLLQYG", "note": "[F8P]", "protein stability index": 2.96}, {"variant": "FIVDILQTLDIGPDVTRVGLLQYG", "note": "[F8T]", "protein stability index": 3.44}, {"variant": "FIVDILSFLDIGPDVTRVGLLQYG", "note": "[Q7S]", "protein stability index": 2.27}, {"variant": "FIVDILYFLDIGPDVTRVGLLQYG", "note": "[Q7Y]", "protein stability index": 3.34}, {"variant": "FIVDILHFLDIGPDVTRVGLLQYG", "note": "[Q7H]", "protein stability index": 1.98}, {"variant": "FIVDILCFLDIGPDVTRVGLLQYG", "note": "[Q7C]", "protein stability index": 2.24}, {"variant": "FIVDILEFLDIGPDVTRVGLLQYG", "note": "[Q7E]", "protein stability index": 3.38}, {"variant": "FIVDILTFLDIGPDVTRVGLLQYG", "note": "[Q7T]", "protein stability index": 3.12}, {"variant": "FIVDILAFLDIGPDVTRVGLLQYG", "note": "[Q7A]", "protein stability index": 3.4}, {"variant": "FIVDILPFLDIGPDVTRVGLLQYG", "note": "[Q7P]", "protein stability index": 2.12}, {"variant": "FIVDILDFLDIGPDVTRVGLLQYG", "note": "[Q7D]", "protein stability index": 3.01}, {"variant": "FIVDILKFLDIGPDVTRVGLLQYG", "note": "[Q7K]", "protein stability index": 3.78}, {"variant": "FIVDILQFLDIHPDVTRVGLLQYG", "note": "[G12H]", "protein stability index": 3.69}, {"variant": "FIVDILQFLDICPDVTRVGLLQYG", "note": "[G12C]", "protein stability index": 2.76}, {"variant": "FIVDILQFLDISPDVTRVGLLQYG", "note": "[G12S]", "protein stability index": 2.61}, {"variant": "FIVDILQFLDINPDVTRVGLLQYG", "note": "[G12N]", "protein stability index": 3.36}, {"variant": "FIVDILQFLDIIPDVTRVGLLQYG", "note": "[G12I]", "protein stability index": 2.79}, {"variant": "FIVDILQFLDIMPDVTRVGLLQYG", "note": "[G12M]", "protein stability index": 2.11}, {"variant": "FIVDILQFLDIDPDVTRVGLLQYG", "note": "[G12D]", "protein stability index": 2.56}, {"variant": "FIVDILQFLDIFPDVTRVGLLQYG", "note": "[G12F]", "protein stability index": 1.9}, {"variant": "FIVDILQFLDITPDVTRVGLLQYG", "note": "[G12T]", "protein stability index": 3.93}, {"variant": "FIVDILQFLDIQPDVTRVGLLQYG", "note": "[G12Q]", "protein stability index": 2}, {"variant": "FIVDILQFLDILPDVTRVGLLQYG", "note": "[G12L]", "protein stability index": 2.63}, {"variant": "FIVDILQFLDIRPDVTRVGLLQYG", "note": "[G12R]", "protein stability index": 4.05}, {"variant": "FIVDILQFLDIGFDVTRVGLLQYG", "note": "[P13F]", "protein stability index": 1.91}, {"variant": "FIVDILQFLDIGEDVTRVGLLQYG", "note": "[P13E]", "protein stability index": 2.72}, {"variant": "FIVDILQFLDIGADVTRVGLLQYG", "note": "[P13A]", "protein stability index": 3.91}, {"variant": "FIVPILQFLDIGPDVTRVGLLQYG", "note": "[D4P]", "protein stability index": 5.01}, {"variant": "FIVHILQFLDIGPDVTRVGLLQYG", "note": "[D4H]", "protein stability index": 4.41}, {"variant": "FIVQILQFLDIGPDVTRVGLLQYG", "note": "[D4Q]", "protein stability index": 2.72}, {"variant": "FIVEILQFLDIGPDVTRVGLLQYG", "note": "[D4E]", "protein stability index": 2.88}, {"variant": "FIVCILQFLDIGPDVTRVGLLQYG", "note": "[D4C]", "protein stability index": 2.67}, {"variant": "FIVAILQFLDIGPDVTRVGLLQYG", "note": "[D4A]", "protein stability index": 2.58}, {"variant": "FIVVILQFLDIGPDVTRVGLLQYG", "note": "[D4V]", "protein stability index": 2.77}, {"variant": "FIVKILQFLDIGPDVTRVGLLQYG", "note": "[D4K]", "protein stability index": 2.12}, {"variant": "FIVLILQFLDIGPDVTRVGLLQYG", "note": "[D4L]", "protein stability index": 2.53}, {"variant": "FIVYILQFLDIGPDVTRVGLLQYG", "note": "[D4Y]", "protein stability index": 2.58}, {"variant": "FIVDILQFQDIGPDVTRVGLLQYG", "note": "[L9Q]", "protein stability index": 2.47}, {"variant": "FIVDILQFFDIGPDVTRVGLLQYG", "note": "[L9F]", "protein stability index": 3.76}, {"variant": "FIVDILQFEDIGPDVTRVGLLQYG", "note": "[L9E]", "protein stability index": 1.72}, {"variant": "FIVDILQFDDIGPDVTRVGLLQYG", "note": "[L9D]", "protein stability index": 2.93}, {"variant": "FIVDILQFADIGPDVTRVGLLQYG", "note": "[L9A]", "protein stability index": 1.79}, {"variant": "FIVDILQFKDIGPDVTRVGLLQYG", "note": "[L9K]", "protein stability index": 1.84}, {"variant": "FIVDILQFTDIGPDVTRVGLLQYG", "note": "[L9T]", "protein stability index": 2.81}, {"variant": "FIVDILQFPDIGPDVTRVGLLQYG", "note": "[L9P]", "protein stability index": 4.2}, {"variant": "FIVDILQFLDKGPDVTRVGLLQYG", "note": "[I11K]", "protein stability index": 3.5}, {"variant": "FIVDILQFLDMGPDVTRVGLLQYG", "note": "[I11M]", "protein stability index": 3.73}, {"variant": "FIVDILQFLDSGPDVTRVGLLQYG", "note": "[I11S]", "protein stability index": 2.12}, {"variant": "FIVDILQFLDQGPDVTRVGLLQYG", "note": "[I11Q]", "protein stability index": 2.77}, {"variant": "FIVDILQFLDLGPDVTRVGLLQYG", "note": "[I11L]", "protein stability index": 2.53}, {"variant": "FIVDILQFLDYGPDVTRVGLLQYG", "note": "[I11Y]", "protein stability index": 3.28}, {"variant": "FIVDILQFLDTGPDVTRVGLLQYG", "note": "[I11T]", "protein stability index": 2.8}, {"variant": "FIVDILQFLDCGPDVTRVGLLQYG", "note": "[I11C]", "protein stability index": 1.18}, {"variant": "FIVDILQFLDNGPDVTRVGLLQYG", "note": "[I11N]", "protein stability index": 2.49}, {"variant": "FIVDILQFLDGGPDVTRVGLLQYG", "note": "[I11G]", "protein stability index": 3.02}, {"variant": "FIVDILQFLDHGPDVTRVGLLQYG", "note": "[I11H]", "protein stability index": 4.42}, {"variant": "FYVDILQFLDIGPDVTRVGLLQYG", "note": "[I2Y]", "protein stability index": 3.07}, {"variant": "FKVDILQFLDIGPDVTRVGLLQYG", "note": "[I2K]", "protein stability index": 2.88}, {"variant": "FRVDILQFLDIGPDVTRVGLLQYG", "note": "[I2R]", "protein stability index": 2.35}, {"variant": "FHVDILQFLDIGPDVTRVGLLQYG", "note": "[I2H]", "protein stability index": 3.01}, {"variant": "FGVDILQFLDIGPDVTRVGLLQYG", "note": "[I2G]", "protein stability index": 3.67}, {"variant": "FTVDILQFLDIGPDVTRVGLLQYG", "note": "[I2T]", "protein stability index": 1.4}, {"variant": "FLVDILQFLDIGPDVTRVGLLQYG", "note": "[I2L]", "protein stability index": 1.44}, {"variant": "FIHDILQFLDIGPDVTRVGLLQYG", "note": "[V3H]", "protein stability index": 4.66}, {"variant": "FIPDILQFLDIGPDVTRVGLLQYG", "note": "[V3P]", "protein stability index": 2.84}, {"variant": "FIYDILQFLDIGPDVTRVGLLQYG", "note": "[V3Y]", "protein stability index": 2.5}, {"variant": "FIWDILQFLDIGPDVTRVGLLQYG", "note": "[V3W]", "protein stability index": 3.32}, {"variant": "FINDILQFLDIGPDVTRVGLLQYG", "note": "[V3N]", "protein stability index": 3.33}, {"variant": "FIKDILQFLDIGPDVTRVGLLQYG", "note": "[V3K]", "protein stability index": 2.6}, {"variant": "FIDDILQFLDIGPDVTRVGLLQYG", "note": "[V3D]", "protein stability index": 3.75}]}]}
